Source: patent CN113150156A (ZHEJIANG BORUI BIOPHARMACEUTICAL CO LTD, dated 2021)

Key:
[1] = biological target: T1, 生物素标记的TIGIT (Acrobiosystems, TIT-H82E5) (UniProt Q495A1); test: competition ELISA, control IgG, inhibition of biotinylated TIGIT binding to coated CD155
T1 sequence (biotin-labelled (生物素标记), site not stated, looked up): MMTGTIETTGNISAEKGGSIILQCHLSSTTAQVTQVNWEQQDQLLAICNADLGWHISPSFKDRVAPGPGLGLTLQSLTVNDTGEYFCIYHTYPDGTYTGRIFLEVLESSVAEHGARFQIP

[2] = biological target: T2, TIGIT on 293T-TIGIT cells (UniProt Q495A1 22-244); test: flow cytometry on 293T-TIGIT cells, FITC goat anti-mouse IgG detection
T2 construct: whole, on cells; also called 细胞膜上TIGIT; 293T-TIGIT细胞
T2 sequence (looked up): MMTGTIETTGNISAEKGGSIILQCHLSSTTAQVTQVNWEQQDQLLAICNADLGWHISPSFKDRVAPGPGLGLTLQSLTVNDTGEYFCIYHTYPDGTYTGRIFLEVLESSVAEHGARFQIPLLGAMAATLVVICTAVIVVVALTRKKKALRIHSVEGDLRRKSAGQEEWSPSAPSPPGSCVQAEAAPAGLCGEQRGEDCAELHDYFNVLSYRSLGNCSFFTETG

[3] = biological target: T3, 生物素标记的TIGIT (Acrobiosystems, TIT-H82E5) (UniProt Q495A1 22-141, biotin-labelled (生物素标记), site not stated); test: competition ELISA, blocking of biotinylated TIGIT binding to coated CD155
T3 sequence (looked up): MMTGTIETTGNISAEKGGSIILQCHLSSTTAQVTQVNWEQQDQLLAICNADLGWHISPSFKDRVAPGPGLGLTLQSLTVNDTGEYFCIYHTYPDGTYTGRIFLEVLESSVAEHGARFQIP

[4] = biological target: T4, 人TIGIT蛋白 (Acrobiosystems, TIT-H52H3) (human, UniProt Q495A1 22-141); test: ELISA, human TIGIT protein coated at 0.5 μg/ml, goat anti-mouse IgG detection
T4 construct: Bought recombinant protein coated on ELISA plates
T4 sequence (looked up): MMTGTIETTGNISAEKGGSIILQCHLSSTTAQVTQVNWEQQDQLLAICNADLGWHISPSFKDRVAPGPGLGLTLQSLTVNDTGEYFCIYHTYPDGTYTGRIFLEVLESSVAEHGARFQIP

[5] = biological target: T3, 生物素标记的TIGIT (Acrobiosystems, TIT-H82E5); test: competition ELISA, blocking of biotinylated TIGIT binding to coated CD112

IgG1 (antibody) showed a 抑制率(%) [1] of 1.68%.

B1: 7D3 (antibody, V domains shown)
VH: EVQLQQSGPELVKPGASVKMSCKASGYTFTSYVMHWVKQKPGQGLEWIGYINPYNDGTKYNEKFKGKATLTSDKSSSTAYMELSSLTSEDSAVYYCARRGNGPLRVFAYWGQGTTVTVSS
VL: DIVMTQTPKFMSTSVGDRVSITCKASQDVSTAVAWYQQKPGQSPKLLIYSASYRYTGVPDRFTGSGSGTDFTFTISSVQAEGLAVYYCQQHYSTPPTFGAGTKLEIK
notes: Mouse monoclonal antibody from a hybridoma (BALB/c x SP2/0); also called 鼠源抗体; 鼠源抗TIGIT抗体7D3
For B1, the EC50 [2] was 0.0113 nM, the IC50 [3] was 0.804 nM and the EC50 [4] was 0.108 nM. It also gave an IC50 [5] of 3.97 nM.
